The nature of this series: protein stability index of a GFP-peptide fusion (GPS, HEK-293T) (PSI 1-6); higher = more stable.
Where [1] appears, read: treatment: DMSO, c terminus: a fixed tail appended.
The mark [2] stands for this setting: treatment: MLN4924 1 uM, 8 h, c terminus: a fixed tail appended.

For 72 sequences, protein stability index results are on record in the supplement of paper PMC10567573.

± gives the standard deviation.
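Further: 24-mer peptide tiles fused after GFP, lentivirally expressed, FACS-sorted into six equal bins by GFP/DsRed ratio, decoded by Illumina sequencing, PSI is the read-weighted mean bin number.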

Regarding AVMRGQILNLTQALKDNKSPLHLV [PI4K2A], the protein stability index amounted to 2.33 ± 0.33 under setting [1] and 2.3 ± 0.24 under setting [2].
For AVNRARRPLARPIKPNEILPPEKG [RHOBTB2] the same measures were 4.24 ± 0.12 and 4.27 ± 0.12.
The like results for AVRCASGRCTVRDFIHRHCQDQNV [SDE2] were, in that order, 2.59 ± 0.41 and 2.39 ± 0.5.
For AYGHRQCLELVSCFVLFSLTHTHT [ANKRD44] the same measures were 2.52 ± 1 and 3.3 ± 0.47.
As to AYIQCQFEDLNKRKDTKEIYTHFT [GNAI1], the protein stability index by setting is: under setting [1], 2.14 ± 0.49; under setting [2], 2.25 ± 0.3.
For CAYRTHLVAGIGFYQHLLLYIQSH [SMG5] the same measures were 3.01 ± 0.63 and 3.34 ± 0.87.
For CDDSFTPQEKLWQQLRRGRYVEFN [CPOX] the same measures were 3.08 ± 0.14 and 2.89 ± 0.3.
For CEDLDELHYQDTDSDVPEQRDSKC [MYBL2] the same measures were 5.65 ± 0.37 and 5.54 ± 0.24.
For CEENEQSLPPPAGLNSSWVELPMN [BNIP3L], the protein stability index turned out to be 4.65 ± 0.34 under setting [1] and 4.41 ± 0.25 under setting [2].
The like results for CEVMQEIVDQVLEEDFDSEQLSVL [INTS3] were, in that order, 5.06 ± 0.14 and 5.16 ± 0.12.
For CGFGGGAGSVFGGGFGGGVGGGFG [KRT15] the same measures were 2.27 ± 0.49 and 2.77 ± 0.23.
For CGTPNYLSPEVLNKQGHGCESDIW [PLK2] the same measures were 2.78 ± 0.28 and 2.83 ± 0.28.
CGYEGCRYGCGHRGCGDGCCCPSC [KRTAP19-2]: the protein stability index was found to be 3.72 ± 0.31 under setting [1] and 3.72 ± 0.39 under setting [2].
Turning to CHLCVNYIEMQTDPANCDYVIVSG [YJU2B], the protein stability index by setting is: under setting [1], 2.71 ± 0.26; under setting [2], 2.57 ± 0.33.
For CHSFISGTAPLNQETAEFFLSLDI [ACSBG2] the same measures were 3.01 ± 1.4 and 2.6 ± 1.6.
Turning to CKRNFVAVYDGSSSVEDLKAKFCS [NETO1], the protein stability index reads like this: under setting [1], 2.78 ± 0.39; under setting [2], 2.9 ± 0.36.
Consider CLKEFPEKQELHRNMLGLLGNVAE [ZER1], for which the protein stability index was determined as 3.19 ± 0.15 under setting [1] and 3.3 ± 0.23 under setting [2].
The like results for CLRVGMLKEGVRLDRVRGGRQKYK [ESRRA] were, in that order, 3.12 ± 0.24 and 3.42 ± 0.46.
For the sequence CNSHMPYGYAAQARARERERLAHS [KCNA4], the protein stability index amounted to 3.1 ± 0.23 under setting [1] and 3.13 ± 0.31 under setting [2].
The like results for CPGLRLPGSLAGRRAGPAIWAQGW [AUH] were, in that order, 2.83 ± 0.15 and 1.82 ± 0.35.
For CPVEYNNDTNSFTVDCEPSDLFRL [CDS2] the same measures were 3.94 ± 0.21 and 4.03 ± 0.17.
For CQILELLNAELEEKMMQEAEKLKA [CCDC89] the same measures were 3.76 ± 0.26 and 3.65 ± 0.17.
As to CSEDWVGYQRKCYFISTVKRSWTS [CD69], the protein stability index is 2.36 ± 0.33 under setting [1] and 2.65 ± 0.49 under setting [2].
For CSHSFLLAVMGYDRYIAICNPLRY [OR10K2] the same measures were 2.87 ± 0.52 and 2.88 ± 0.58.
Take CSKSFRQRAGLIMHQVTHFRGLI [ZNF449]: the protein stability index amounted to 2.92 ± 0.45 (treatment: DMSO, c terminus: native) and 3.08 ± 0.35 (treatment: MLN4924 1 uM, 8 h, c terminus: native).
As to CTEILTEKKDTITNDSLSLKPSWF [MIA2], the protein stability index by setting is: under setting [1], 3.23 ± 0.28; under setting [2], 3.42 ± 0.42.
For CTKTCGVGVRMRDVKCYQGTDIVR [ADAMTSL2] the same measures were 3.27 ± 0.4 and 2.65 ± 0.33.
The like results for CTRFTDEYQLFEELGKGAFSVVRR [CAMK2D] were, in that order, 2.81 ± 0.31 and 2.84 ± 0.39.
For CVDVVFYNPDLKKVVEAHKIVLCA [RHOBTB3] the same measures were 3.01 ± 1.1 and 2.74 ± 0.81.
Turning to CVKLCTGHEYAAKIINTKKLSARD [CAMK2B], the protein stability index turned out to be 3.14 ± 0.18 under setting [1] and 3.18 ± 0.28 under setting [2].
For DALRNLKCGSGARGGDGEVASAPL [TRADD], the protein stability index under setting [1] stood at 4.15 ± 0.38 and the protein stability index under setting [2] came to 4.05 ± 0.3.
For DAVGMLGIEEVTYENCLQALADVE [NLN], the protein stability index by setting is: under setting [1], 4.25 ± 0.27; under setting [2], 3.9 ± 0.34.
For the sequence DAVTIPCGHTFCRLCLPALSQMGA [TRIM15], the protein stability index under setting [1] was 2.47 ± 0.35 and the protein stability index under setting [2] came out at 2.17 ± 0.27.
For DCGPSRADRCSPKEDQAWDGASQD [FBXO34] the same measures were 5.37 ± 0.24 and 5.25 ± 0.28.
The like results for DDFHTNDVCSFPNALVTKLLLDCG [FEM1B] were, in that order, 2.55 ± 0.26 and 2.44 ± 0.2.
For DEAKAPHWTSAPLTEASAHSHPPE [MAP2] the same measures were 5.39 ± 0.16 and 5.37 ± 0.075.
As for DEKINIYCLTCEVPTCSMCKVFGI [TRIM63], the protein stability index is, setting by setting: under setting [1], 2.43 ± 0.14; under setting [2], 2.45 ± 0.32.
The like results for DEMVIVKDIDMFSMCEHHLVPFVG [GCH1] were, in that order, 2.76 ± 0.22 and 2.64 ± 0.37.
For DEPVCGRPLGIRAGPNGTLFVADA [APMAP] the same measures were 3.83 ± 0.22 and 4.03 ± 0.27.
For DETHFGKMGSYYINRTFFFDVHPP [POMT2] the same measures were 2.45 ± 0.21 and 2.23 ± 0.33.
Turning to DFPEDGLKIFTEDLPEVESLPRDR [VPS39], the protein stability index is 5.31 ± 0.31 under setting [1] and 5.39 ± 0.068 under setting [2].
The like results for DFQGRILSVDPEEEREEGPPRIPQ [RHOBTB1] were, in that order, 5.29 ± 0.31 and 5.22 ± 0.22.
Regarding DFSGLTLDGALRTFLKAFPLMGET [PSD2], the protein stability index is, setting by setting: under setting [1], 1.91 ± 0.24; under setting [2], 2.05 ± 0.34.
The like results for DGTSQSTGGSADLFGGFADFGSAA [CLINT1] were, in that order, 4.71 ± 0.25 and 4.46 ± 0.27.
On to DHQDSDEFCRNTLCAPEVISLINT [FAF2], for which the protein stability index by setting is: under setting [1], 3.72 ± 0.37; under setting [2], 3.67 ± 0.38.
The like results for DILMEFGHLFPPPTPIFAGGANDR [WSB1] were, in that order, 2.41 ± 0.46 and 2.51 ± 0.45.
For DILPRWAIIGWLLTTCTSNVAASN [INTS3] the same measures were 3.24 ± 0.47 and 3.08 ± 0.51.
Turning to DKLGELSDKIGSTIDDTISKFRRK [CLINT1], the protein stability index under setting [1] was 3.32 ± 0.58 and the protein stability index under setting [2] amounted to 3.4 ± 0.39.
For DLAEFAKKQPWWRKLFGQESGPSA [FUNDC2] the same measures were 2.65 ± 0.13 and 2.58 ± 0.17.
Turning to DLCSDVNVCSLLAQTPLHVAAETG [RIPK4], the protein stability index is 3.46 ± 0.4 under setting [1] and 3.21 ± 0.47 under setting [2].
For DLFGWSQLIYNHITTRVNSEQEHF [ADD1] the same measures were 2.72 ± 0.51 and 2.55 ± 0.41.
For DLIDNLKEAQYIRTERVEQAFRAI [PCMTD1] the same measures were 2.29 ± 0.17 and 2.27 ± 0.14.
For DNARLAADDFRTKYEHELALRQTV [KRT16] the same measures were 4.01 ± 0.17 and 4.11 ± 0.26.
As for DNDPSCVHPIIKRRQCRPEIRMWQ [PHTF1], the protein stability index is, setting by setting: under setting [1], 2.54 ± 0.25; under setting [2], 2.5 ± 0.41.
Regarding DNHNLIERRRRFNINDRIKELGTL [TFE3], the protein stability index by setting is: under setting [1], 3.33 ± 0.13; under setting [2], 3.69 ± 0.22.
For DNVPDPKDVKERFSGSLVAALSAT [TMEM175] the same measures were 4.42 ± 0.34 and 4.44 ± 0.34.
The like results for DPGQDLVPKQAIQVQEADEAGWGG [DLX1] were, in that order, 5.18 ± 0.28 and 5.22 ± 0.4.
On to DPSSTKPGTLLKTSPSPERSLLLK [TRIM14], for which the protein stability index was 4.59 ± 0.2 under setting [1] and 4.67 ± 0.21 under setting [2].
DPTGPAGLGRPTPGLSQGPGKETL [EHMT1]: the protein stability index reads like this: under setting [1], 5.17 ± 0.15; under setting [2], 5.09 ± 0.13.
Consider DPVRQCAECALVSLKEAEFYDKQL [ZFYVE21], for which the protein stability index turned out to be 3.62 ± 0.046 under setting [1] and 3.67 ± 0.32 under setting [2].
The like results for DQFTQVFLESQGIELNPPEKMALD [EFHC1] were, in that order, 4.662 ± 0.027 and 4.78 ± 0.24.
For DRFLAGVPTPKSHLQLLGAVCMFL [CCND2] the same measures were 2.63 ± 0.2 and 2.27 ± 0.21.
For DRHTKFFEEPEDPSNRSFFSEIIS [PPP2R2B] the same measures were 3.38 ± 0.1 and 3.48 ± 0.23.
On to DRILERIEDSTGLNRPGPAPLSSR [TCF25], for which the protein stability index turned out to be 4.47 ± 0.21 under setting [1] and 4.66 ± 0.19 under setting [2].
For DTAHDFRAKCRNMEHALREKAKAF [TRIM35] the same measures were 3.18 ± 0.25 and 3.43 ± 0.23.
For DTVEIREVHERNDGIDPFPLLMNR [EFHC1] the same measures were 4.3 ± 0.15 and 4.42 ± 0.25.
With DTVTIPVPSEEPQESDQTEEHESG [IQUB], the protein stability index worked out at 5.54 ± 0.29 under setting [1] and 5.72 ± 0.14 under setting [2].
The like results for DVAVTVDRDRFMDEFFEQVEEIRG [STX1A] were, in that order, 4.35 ± 0.39 and 4.49 ± 0.25.
The like results for DVLLLGNDYIVPRHCPELAEMSRV [HNF4A] were, in that order, 2.65 ± 0.2 and 2.49 ± 0.3.
For DVTDEHGEREPFAETDEHTGANTK [FAM9B] the same measures were 5.49 ± 0.12 and 5.5 ± 0.065.
On to EAARNGKMKFVIGNGKNLVDFTFV [NSDHL], for which the protein stability index stood at 2.17 ± 0.47 under setting [1] and 2.04 ± 0.35 under setting [2].
For EADKNDKAVKDLVVLLFETALLSS [HSP90AB1] the same measures were 2.13 ± 0.067 and 2.2 ± 0.39.
